Test results as given in the nanobody polyreactivity screen of Harvey et al. (2022).

Experiment: yeast display, Sf9 membrane polyspecificity reagent, FACS + sequencing; frameworks hold sequencing errors
Method in brief: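 Synthetic nanobody libraries on Saccharomyces cerevisiae BJ5465 were galactose-induced for 36–48 hours, stained 1 hour at 4 °C with 10% biotinylated, detergent-solubilized Sf9 membrane reagent and enriched on streptavidin microbeads. FACS then separated cells into low and high (top ~1%) gates by anti-HA (expression) and streptavidin (reagent binding) fluorescence. Genes were colony-PCR amplified, MiSeq 2 × 250 sequenced and CDR-length filtered. A clone's polyreactivity label is that of its gate of origin.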

QVQHVESGGGLVQAGGSLRLSCAASGIIFHSYAMGWYRQAPGKERELVAAISKNVVSTYYADSVKGRFTISRDNAKNTVYLQMNSLKPEDTAVYYCATLKPYRARQRDYWGQGTQVTVSS
polyreactivity (PSR sort gate): high polyreactivity

QVQLVESGGGLLKAGGSLRLISAASGSIFGYNTMGWYRQAPGKERELVADISVSGDDTYYADSVKGRFTISRDNAKNTVYLQMNSLKPEDTAVSYCNAVEYFGYYNTYDYWGQGTQVTVSS
polyreactivity (PSR sort gate): low polyreactivity

QVQLVESGGGLVQAGGSLRLSCAASGSTFTFYFMGWYRQAPGKERELVAAITASGGSTYYADSVKGRFTISRDNAKNTVYLQMNSEKPEDTAVYYCAARPTYYYSRTYDYWGQGTQVTVSS
polyreactivity (PSR sort gate): low polyreactivity

QVQLVESGGGLVQAGGSLRLSCAASGGTFTNYAMGWYRQAPGKERELVAAITDSGATTYYADSVKGRFTISRDNAKNTVYLQMNSLKPEDTAVYYCNAALDLYTDFDYWGQGTQVTVSS
polyreactivity (PSR sort gate): low polyreactivity

QVQLVESGGGLVQAGGSLRLSCAASGSILDHYAMGWYRQAPGKEREFVAAISIRGGSTYYADSVKGRFTISRDNAKNTVYLQMNSLKPEDTAVYYCNALSNYVYRRNDYWGQGTQVTVSS
polyreactivity (PSR sort gate): low polyreactivity

QDQLVESGGGLFQAGGSLRLSCAASGFTFTSYNMGWYRQAPGKEMELVAGISLSGGDTSYADSVKGRFTISRDNAKNTVYLQMNSMKPEDTAVYFCAKSYVNYAFDSWGHGTQVTVSS
polyreactivity (PSR sort gate): high polyreactivity

QVQLVESGGGLVQAGGSLRLSCAASGLIFSRYVMGWYRQAPGKERELVAAISRSGGSTYYADSVKGRFTISRDIAKNTVYLQMNSLKPEDTAVYYCNAGRRTGRYGYWGQGTQVTVSS
polyreactivity (PSR sort gate): high polyreactivity

QVHLVDSGGGLVQAGGSLRLSCAASGFTFDYYAMGWYRQAPGKERELVAAITSDGSTYYADSVKGRFTISRDNAKNTVYLQMNSLKPEDTAVYYCAADGISLYATAYDYWGQGTQVTVSS
polyreactivity (PSR sort gate): low polyreactivity

QVQLVESGGGLVQAGGSLRLSCAASGIIFSYNFMGWYRQAPGKERELVAGISRSGGSTYYADSVKGRFTISRDNAKNTVYLQMNSLKPEDTAVYYCNTVERGQNRRPGDKARRYDWGQGTQVTVSS
polyreactivity (PSR sort gate): high polyreactivity

QVQLVESGGGLVQAGGSLRLSCAASGSIYRYYPMGWYRQAPGKEREFVAAITYSDSDTYYADSVKGRFTISRDNAKNTVYLQMNRLKPEDTAVYYCAARFRRTRVTYYYWGQGTQVTVSS
polyreactivity (PSR sort gate): high polyreactivity

QVQLVESGGGLVQAGGSLRLSCAASGSTFRYNTMGWYRQAPGKERELVAAINISSSSTYYADSVKGRFTISRDNAKNTVYLQMNSLKPEDTAVYYCAKRDFVPIATDENDDYWGQGTQVTVSS
polyreactivity (PSR sort gate): low polyreactivity

QLQLVDSGGGVVQAGGSLRLSCAASGSTFSRYAMGWYRQAPGKEMELVAAISTRGGSTRYADSVKGRFTISRDNAKNTVYLQMYCRKPEDTAVYYGAALGQGRTSATSFVDYEYWGQGTQVTVSS
polyreactivity (PSR sort gate): high polyreactivity

QVQLVESGGGLVQAGGSLRLSCAASGNIFGSNAMGWYRQAPGKERELVAAISGSNGGTYYADSVKGRFTISRDNAKNTVYLQMNSLKPEDTAVYYCNADFFSRWGYRYMDYWGQGTQVTVSS
polyreactivity (PSR sort gate): low polyreactivity

QVQLVESGGGLVQAGGSLRLSCAASGRIFYYYTMGWYRQAPGKERELVARINSSGSTNLRRLCEGALHNFTRQCEEYRLFTDEQPETGRYRVYYCNADTKRSSREYDYWGQGTQVTVSS
polyreactivity (PSR sort gate): low polyreactivity

QVQLVESGGGLVQAGGSLRLTCAASGYIFYTYAMGWYRQAPGKERELVAGITGSGGSTYYADSVKGRFTISRDNAKNTVYLQMNSLKPEDTAVYYCAKDIYQIGYRRYDSWGQGTQVTVSS
polyreactivity (PSR sort gate): low polyreactivity

QVQLVESGGGLVQAGGSHRLSCAASGIIFYRNAMGWYRQAPGKERELVATITVSSGSTYYADSVKGRFTISRDNAKNTVYLLMYSLKPEDTAVYYCNARYYYFSVRYKYDFNYWGQGTQVTVSS
polyreactivity (PSR sort gate): high polyreactivity

QVQLVESGGGLVQAGGSLRLSCAASGRIFQRYAMGWYRQAPGKERELVAAISSRGGRTFYADSVKGRFTISRDNAKNTVYLQMNSLKPEDTAAYYCAATATVGSVTFDYWGQGTQVTVSS
polyreactivity (PSR sort gate): high polyreactivity

QVQLVESGGGLVQAGGSLRLSCAASGRIFPYYDMGWYRQAPGKEMELVATITWRGGITYYADSVKGRFTISRDNAKNTVYLQMNSLKPEDTAVYYCAVRKVYRSSFDYWGQGTQVTVSS
polyreactivity (PSR sort gate): high polyreactivity

QVQLVESGGGLVQAGGSLRLSCAASGSTFRTYAMGWYRQAPGKERELVAAISWSGGITYDADSVKGRFTISRDNAKNTVYLQMNSLKPEDTAVYFCDARLASWPLTYDFQWYEYWGQGTQVTVSS
polyreactivity (PSR sort gate): low polyreactivity

QVQLVESGGGLVQAGGSLRLSCAASGNTIIRYAMGWYRQAPGKERELVAAISYSGGRTYYADSVKGRFTISRDNAKNTVYLQMNSLKPEDTAVYYCAARYYPSGYRKKMYYWGQGTQVTVSS
polyreactivity (PSR sort gate): high polyreactivity

QVQLVESGGGLVQAGGSLRLSCAASGITFNDYALGWYRQAPGKERELDAAIDWSGGRTYYADSVKGRFTISRDNAKNTVYLQMNSLKPEDTAVYYCAAVLYSRLFWYRLDYWGQGTQVTVSS
polyreactivity (PSR sort gate): low polyreactivity

QVQLVESGGGLVQAGGSLRISCAASGSIFLSNMGWYRQAPGNERELVAAITIGGSTDYADSVKGRFTISRDNAKNTVYLQMNSLKPEDTAVYYCNADNPYSDGADSLGNYWGQGTQVTVSS
polyreactivity (PSR sort gate): low polyreactivity

QVQLVESGGGLVQAGGSLRLSCAASGSNFRYNTMGSYRQAPGKERELVAAITQSGDNTYYADSVKGRFTISRDNAKNTVYLQMNSLKPEDTAVYYCAASGARSDGWTSYDYWGQGTQVTVSS
polyreactivity (PSR sort gate): low polyreactivity

QVQLVESGGGLDQAGGSLRLSCAASGLIFYYYAMGWYRQAPGKERELVAAISSNGGSTYYADSVKGRFTISRDNAKNTVYLQMNSLKPEDTAGYYCAAVGRVDGYRYDYWGQGTQVTVSS
polyreactivity (PSR sort gate): high polyreactivity

QVQLVESGGGLVQAGGSLRLTCAASGSIYKYKAMGWYRQAPGKERELVAAIRWSGVGTRYADSVKGRFTISRDNAKNSLYLQMNSLKREDTAVYYCAADVSKYHDGHEYDYWGQGTQVTVSS
polyreactivity (PSR sort gate): low polyreactivity

QVQLVESGGGLVQAGGSLRLSCAASGRIFGVYAMGWYRQAPGKERELVAVINGRGSRTYYADSVKGRFTISRDNAKNTVYLQMNSLKPEDTAVYYCAAGYPDSEYDYWGQGTQVTVSS
polyreactivity (PSR sort gate): high polyreactivity

QVQLVESGGGLVQAGGSLRLSCAASGSTFSPNAMGWSRQAPGKERELVAAITYRGANTYYADSVKGRFTISRDNAKNTVYLQMNSLKPEDTAVYYCAAEYAYHHVGFGYWGQGTQVTVSS
polyreactivity (PSR sort gate): low polyreactivity

QVQLVESGGGLVQAGGSLRLSCAASGRTFVVYAMGWYRQAPGKERELVAAISWSGGLTYYADSVKGRFTISRDNAKNTVYLQLNSVKPEDTAVYYCAAEVYLYKYVYYYWGQGTQVTVSS
polyreactivity (PSR sort gate): high polyreactivity

QVQLEESVGGLVQAGGSLRLSCAASGSILLWNAMGSYREAPGKERELVAAISSSGTSTYYADSVKGLFTISRDNAKNTVYLQMNSEKPEDNAVYYCAADQSEFYAIYYYWGQGTQVTVSS
polyreactivity (PSR sort gate): low polyreactivity

QVQLVESGGGLVQAGGSLRLSCASSGYTFIRYAIGLYRQAPGKERELVAAIRGTGTSTYYADSVKGRFTISRDNAKYTVYLQMNSLKTEDTAVYYCNKVAGRSPYTRYDYWGQGTHVTVSS
polyreactivity (PSR sort gate): low polyreactivity

QVQLVESGGGLVQAGGSLRLSCASSGSIFKANGMGWYRQAPGKEREFVAAITRSGATTYYADSVKGRFTISRDNAKNTVYLQMNSLKTEDTAVYYCNVKAWRDLYYAGFDYWGQGTQVTVSS
polyreactivity (PSR sort gate): low polyreactivity

QVQLVESGGGLVQAGGSLRLSCAASGFTFSSYAMGWYRQAPGKERELVAAITISGGRTYYSDSVKGRFTISRDNAKNTVYLQMNSLKPEDTAVYYCNTDYGRRYDYWGQGTQVTVSS
polyreactivity (PSR sort gate): high polyreactivity
